{"source": "the DeepSol protein solubility set"}
{"assay": "soluble on expression in E. coli; label from the status in PepcDB or PDB records"}
{"sequence": "MKLDAKSTIETGKAILGIELGSTRIKAVLIDQENKPIAQGSHTWENQLVNGLWTYSIDAIWSGLQDCYADLRSNVKKLYDTEIETLAAIGVSAMMHGYMPFNEKEEILVPFRTWRNTNTGRAAAELSELFVYNIPLRWSISHLYQAILDNEAHVKDIKFLTTLAGYVHWQITGEKVLGIGDASGMLPIDPTTNNYSAEMVAKFNNLIASKEYSWKLEDILPKVLSAGENAGVLTPEGCKKLDASGHLKAGIPVCPPEGDAGTGMVATNAVKQRTGNVSAGTSSFSMIVLEKELSKPYEMIDMVTTPDGSLVAMVHCNNCTSDLNAWVNLFKEYQELLGIPVDMDELYGKLYNIALTGDTDCGGLLSYNYISGEPVTGLAEGRPLFVRSANDKFNLANFMRAHLYASVGVLKIGNDILFNEEKIKVDRITGHGGLFRTKGVGQRVLAAAINSPISVMETAGEGGAWGIALLGSYLVNNKKGQSLADFLDESVFVSDAGVEVSPTPEDVAGFNTYIESYKAGLPIEEAAVKFKLEHHHHHH", "soluble on expression in E. coli": "soluble"}
{"sequence": "MGSDKIHHHHHHGCSDDFKSGLRLDGDVWVNSIRLDEYAGTVDYQNKAIVVGVPYDYDITRMVVTEMNLSEGAKASIAIGETIDFSLPVSLTVKNGDVQMSYTITVKRDEAKILTFKLNDTYVGKVDQLSKTISVVVPLTVDITQLKGTFTVTDGATVTPASGSIQDFTNPVTYTATYRSAVTPYVVTVTQGNVIPTAFVGTASSVSLLTSPEEKAAAQWMMDNVSMSEYISFKDVVDGKVDLGKYTAIWWHFHADNGDNPPLPDDAKAAAEKFKVYYQNGGNLLLTRYATFYIANLGIAKDERVPNNSWGGNEDSPEITSAPWSFLITGSESHPLFQDLRWKDGDKSTVYTCDAGYAITNSTAQWHIGTDWGGYDDLNAWRNLTGGIDLAHGGDGAVVIAEFEPRSNSGRTLCIGSGCYDWYGKGVDASADYYHYNVEQMTLNAINYLCK", "soluble on expression in E. coli": "not soluble"}
{"sequence": "MTELKLIHIFTDGSCLGNPGPGGYGIVMKYKGHTKEMSGGFSLTTNNRMELLAPIVALEALKEPCKIILTSDSQYVRQGIMTWIHGWKKNGWMTSNGTPVKNVDLWKRLDKAAQLHQIDWRWVKGHAGHAENERCHQLARAAAEANPTQIDTGYQAES", "soluble on expression in E. coli": "soluble"}
{"sequence": "MNEFEDLLNSVSQVETGDVVSAEVLTVDATQANVAISGTGVEGVLTLRELTNDRDADINDFVKVGEVLDVLVLRQVVGKDTDTVTYLVSKKRLEARKAWDKLVGREEEVVTVKGTRAVKGGLSVEFEGVRGFIPASMLDTRFVRNAERFVGQEFDTKIKEVNAKENRFILSRREVVEAATAAARAEVFGKLAVGDVVTGKVARITSFGAFVDLGGVDGLVHLTELSHERNVSPKSVVTVGEEIEVKILDLNEEEGRVSLSLKATVPGPWDGVEQKLAKGDVVEGTVKRLTDFGAFVEVLPGIDGLVHVSQISHKRIENPKEALKVGQEVQVKVLEVNADAERVSLSIKALEERPAQEEGQKEEKRAARPRRPRRQEKRDFELPETQTGFSMADLFGDIELLEHHHHHH", "soluble on expression in E. coli": "soluble"}
{"sequence": "MGSDKIHHHHHHMEKIGELINHFRENKGMSQAELSEGILSKAQLSKFERDLTKISVDKFLALLERLHVTFTEFGNALAIQERLYEQAILEDITKAVINNNKDQAQLVKERAEQHLKKHHGKYNQLTLIMVKAMICDMEKGTLPKADTKVLADYLFSVDGWTHFELLLFGNTMSALSLVTVNQLARELAAQINEAWAIHQNFQLTINLLYNVVILNLSAKDLTTARLFLRVMKHSHVEDSMMAERYLIALADAFCDYCGEPTVEHENNVKRMIEIQKEIGSTNFFVAFNNQAKMFISETKISSNDSAGNV", "soluble on expression in E. coli": "not soluble"}
{"sequence": "GMSVKVSVDDIDGITEVLNVYMNAAESGTGEEMSAAFHKDATIFGYVGDKLAFNGPIKDLYDWHNSNGPAKNVQSRITNIDIVGTVAHARVEAENWTNFKFSDLFLLLKLDGKWTIVNKVFHLHA", "soluble on expression in E. coli": "soluble"}
{"sequence": "IHTSPYSKDAPLVASLSVNQKITGRNSEKDVRHIEIDLGDSGLRYQPGDALGVWYQNDPALVKELVELLWLKGDEPVTVEGKTLPLNEALQWHFELTVNTANIVENYATLTRSETLLPLVGDKAKLQHYAATTPIVDMVRFSPAQLDAEALINLLRPLTPRLYSIASSQAEVENEVHVTVGVVRYDVEGRARAGGASSFLADRVEEEGEVRVFIEHNDNFRLPANPETPVIMIGPGTGIAPFRAFMQQRAADEAPGKNWLFFGNPHFTEDFLYQVEWQRYVKEGVLTRIDLAWSRDQKEKVYVQDKLREQGAELWRWINDGAHIYVCGDANRMAKDVEQALLEVIAEFGGMDTEAADEFLSELRVERRYQRDVY", "soluble on expression in E. coli": "soluble"}
{"sequence": "MLIPARMSEAEEQRWVTVMLDKLAAQESKRRLGDAELAERAERLSLQYFDGRARPTAVRWVTNQNTRWGSCTPSEGSIRLSHRLQGMPEYVVDYVLLHELAHLLVPGHGPRFWRLLEAYPRTERARGYLEGVVAADRLPHQPAPGAELEHHHHHH", "soluble on expression in E. coli": "not soluble"}
{"sequence": "MALRRVKNPEMWNDDLYNLMFRFTKPNGTFATFTAASAVRKGLESAGFNVTKRKGFGKKRECLSGLKIQSKSTALSTPWYLAQPAKMEKQDVAIIGGGIASLCAAISLIKRGAKVTIYCEDDALALNASGNKQGAFYPQLSDDNALTVDFYLHAFSYGRQLLDWAIEQNIVFEHEFCGVALCAYNEKSAVKLTKISQLGLPNEIFQMLSAEQLSEKVGLPLNCEGGWIEQGAWLAPRQFVQNAFSFLEKQGVVIKTAQKITALSQLEKGWELKNMQGQKYCHEVVILANGHKITDFVQTEKLPLYPIRGQVSQIPTSENLLKLKSVLCYDGYLTPANQLKTSHCIGASMFVIMLIAILANKNNKKINKNSSKISPNLGRKMWIHQIISLVLEHHHHHH", "soluble on expression in E. coli": "not soluble"}
{"sequence": "MSLSEAGHKFLAKLGKKRLRPGGKRATDWLIAEGGFSKEKRILEVACNRGTTAIELAQRFGCKITAVDMDAQALEVAKKSAGTAGVAHLISFERANAMKLPYQDASFDIVINEAMLTMQADQAKKKCVMEYLRVLKPGGLLLTHDVLLKEAKESIRQELSQAIHVNVGPLTQDGWEQVMIESGYCDVKALTGEMTLMKLSGMIYDEGLLGTLKICVNACKKENRKQFLTMYKMFAKNKQKLGFIAMASYKSSEGHHHHHH", "soluble on expression in E. coli": "soluble"}
{"sequence": "GPGSMFSCCLRSLARGREPQVLGTAVPSFYNFPYRAQDVLHLYRDLLKLIYQHPPQERADLLFRLRNEFHSRRHLSAPKLISAAIRRGEGILNVQRGLMESRSVRARAVASRERGAQSVDGLWDQLQIVSGHMLPGLRNFSASRGLSRGSYVRQATTQAVYSRRK", "soluble on expression in E. coli": "not soluble"}
{"sequence": "REHDFDDLKFEHFLASAAGAFPAFLEVAEKRIIGEGVLRAVKESMRWHRAENVHFGAFLLLVPLISSWDAGGMVDIAEAARNRLRRTDFRDSLSVLEAFRLSNARVVEAGELNLKDRKTEEEIAQKKINLYEWMKMAPEENLIARELVDGFKISIEGAKFLLSFGNSGKAVVELYYHLLSKFPDPLVIAKMGREYAEKITEWAEKARTEEERKELDEKLLKDGANPGTIADLTASSIFLALAEGWR", "soluble on expression in E. coli": "soluble"}
{"sequence": "MGSDKIHHHHHHMDLEIATVKAILTEHDLLKEIKSTKTVANTGISYDSRTVKPGYMFFCKGNFKPEYLSVARQNGATTYVSENEYPEGTGMTAIIVTNVTRAMAVLSATYYNFPQNDLFIIGITGTKGKTSSAYFAHSILNQKYPNQVALFSTIDRIVGPKPEDQFKSDLTTPESMNLFHDMRVAVDNGMKYLVMEVSSQAYLRDRVYGLKFDCGIFLNITPDHIGRNEHKDFEDYLHCKLQLMVNSKRCIIDADTDRFDDVFGAAKATTDPEQIYLFSADVENGGVDFLIQDEEDDLTSNRFTLVESSSKAEAFHVAGDYDLNVAGDYNQSNATAAIIAAALADVTYQDAVLPLKSIVIPGRMEHLNVPGHGVVFVDYAHNYASLHALLKFLKHQYHDGKVIVVVGSPGDKGISRRAGFGQALSEQADIAYLTTDDPAFEDPEQIIQQIMDNIKPGTVEVRQVLDRHDAIEQAIMNSSEKDVVVLAGKGEDPYQKVGGVDTPWPTDMGVAEEVKRGLS", "soluble on expression in E. coli": "not soluble"}
{"sequence": "GPGSDVFFSGYLNKLKGGDNHSWKKRYLQVQKGHFIMSDKESDTEGKALSLEHIQSVCPVPVSTAKREHVFALHTTSGKSMWFEAASLENMEEWIHAIQCGLGVA", "soluble on expression in E. coli": "soluble"}
{"sequence": "MGHHHHHHSHGGVGKKEQLSVKKLRVVLFALCCNTEQAAEHFRNPQRRIRRWLRRFQASQGENLEGKYLSFEAEEKLAEWVLTQREQQLPVNEETLFQKATKIGRSLEGGFKISYEWAVRFMLRH", "soluble on expression in E. coli": "not soluble"}
{"sequence": "MSLKITRITVYQIALPLEHPYWLSGGRLKFEVLDATLVKIETGTGLTGWGEGTPWGHTYVPAHGPGIRAGIETMAPFIIGLDPRRGLEIERAMDLALPGHLYAKSPIDMACWDIAGQAAGLSIADLMGGGSRTPRPIASSVGAKTVEETRAVIERYRQRGYVAHSVKIGGDIERDIARVRDVESLRRDGEIVLYDVNRGWTRQQALRVMSATEDLNVMFEQPCESLDDIAAIAGKYAAPVSVDESLVTLQDAARIARDGLAEVFGIKLNRVGGLTKAARMRDIALAHGIDMFVMATGGSVLADAEALHLAATIPDANCHAVWACQDMITLDIAGGRGPRNIDGHLHLTEAPGLGVHPDEDVLGDPVGVYGEGHHHHHH", "soluble on expression in E. coli": "not soluble"}
{"sequence": "MTRTLASLFGPLQPMALAEDLAAPLLAMPIPEGAADPAAAARAPAAGPTVPDRFTVARGLAVVPVRGILTPNMAQYERWFGWATYHGLAETMAHLAASEDAAAIVLEIDSPGGLVCGIEAAAEAIAAAAAVKPVHALVSPLAASAAYWLASQASEIVMTPGAVAGSIGVALTAAAHVQPGANGAQIFEMSSRHARAKRPDASTEAGRAELQRSLDEAEAAFHAAVSAGRAIPAAELAARLSVTDDPQDGGATFRAPEAIRRGLADRIETRAAFYARLAARTAPKPRSPSRAFAARAAAAAALARS", "soluble on expression in E. coli": "not soluble"}
{"sequence": "MSLKELEEIRKEIDEVDKIITELFEKRMNLVMEVAEYKEKNSIPVSDSKREKKVIDKNIGYLKNKEYSEVLKEFYINFMNLSKKLERKRIYNEEKTSVNTSIYGLIGEKLGHSHSSYIHKLIFEKVGIKGIYNLFEVPKEKLKESVDTFKIIKCGGLNVTIPYKVEVMKELYEISEKARKIGAVNTLKFSREGISGFNTDYIGFGKMLSKFRVEIKNNICVVLGSGGAARAVLQYLKDNFAKDIYVVTRNPEKTSEIYGEFKVISYDELSNLKGDVIINCTPKGMYPKEGESPVDKEVVAKFSSAVDLIYNPVETLFLKYARESGVKAVNGLYMLVSQAAASEEIWNDISIDEIIVDEIFEVLEEKIKSEGHHHHHH", "soluble on expression in E. coli": "soluble"}
{"sequence": "MRQCTPFDTLLVFYSTWPVLKNILTNKIMPAELESVRTRQIVALRTMINLNEPVVNSGVREPVWKVLVLDRTGQDIISPLLPVKQLRELGVTLHLLIGARREPLTDVPAVYFVSPNDENIDLMSEDLKKAMYDSFYCNFISPLARPRLESLASAAVHGGAVSQVQKVVDQYLNFISLEDDLFVLRRYSENSTFSYHAMNSPGTSDVAVNAMLDSIADGLFAVCATMGIVPIIRCPKGNAAEMVAKKLDQKLRDNLRDSRNNLFTMDGVRMGLLQTSRPLLVIGDRSADLATMLHHTWTYQALMHDVLELDQNRVTISTSSTGKKKDYDMATGGSDKLWNNHKGSAFPTVAEAVQENLDDYRSKEDDIKKIKQALGLSGESEAADEALTNVLADTTAKLGSTVMSLPDLLESKRLIDLHTNIATTLLDVIKERKLDVSLSSSKSCCNTHRLVDLFYQPVTQFLSNINHQEDVLRVLIIAFLCQETVNQNGYDQMMNLLRERGIEESALKHVQKLKSISQLGSRAANSAHTEEHQGAGTKTISMFGKLLSHSSKFVMEGVKNLVPKEHNLPLTKMIDSLNTPPSSTGISSAVGINQMIGGSSQGPDIDDIYCFFDPKLMHQPTKETILLARQQSAQDVILFVVGGGNYVEYQNLVDYGKRKNLMRVTYGCTELVNPAQFCDQVSCCSLSLPLTDLSGDSPYFFCSPLEF", "soluble on expression in E. coli": "not soluble"}
{"sequence": "MNAKAVKEVLKAHVGRAYAPYSGFPVVALVEAEGEVFLGVNVENASFPLSQCAERNAVAAMVLAGKRRLERVHVYSPKGPIPPCGGCRQVLMEFGGPEVEVVLHGPEEEVRTTLGALLPLAFRL", "soluble on expression in E. coli": "soluble"}
